Patent US20040092720A1 (US Dept. of Health and Human Services, published 2004)

B1: Peptide D13 (peptide)
peptide: GGSLAFGTLLCIAIVLRFK
B2: Peptide D16 (peptide)
peptide: GGSLAFGTLLCIAIVL
B3: Peptide D18 (peptide)
peptide: GGSLAFGTLLCIAI
B4: Peptide D26 (peptide)
peptide: GGSLAF
notes: also called GGSLAF
B5: Peptide D33 (peptide)
peptide: GTLLCIAIVLRFKKT
B6: Peptide D4 (peptide)
peptide: TFLVAGGSLAFGTLLCIAIVL
B7: Peptide D21 (peptide)
peptide: GGSLAFGTLLC
B8: Peptide E85 (peptide)
peptide: NEEDFVRLKQQISDHISQSCGSGQ
B9: Peptide E91 (peptide)
peptide: MPKSYLPQTVRQGGYMPQ
B10: Peptide D37 (peptide)
peptide: CIAIVLRFKKT
B11: Peptide D36 (peptide)
peptide: LCIAIVLRFKKT
B12: Peptide D39 (peptide)
peptide: AIVLRFKKT
B13: Peptide D29 (peptide)
peptide: SLAFGTLLCIAIVLRFKKT
B14: Peptide D22 (peptide)
peptide: GGSLAFGTLL
B15: Peptide E90 (peptide)
peptide: VGMEAATDEGMPKSYLPQTVRQGG
B16: Peptide D14 (peptide)
peptide: GGSLAFGTLLCIAIVLRF
B17: Peptide E79 (peptide)
peptide: ESTQPLLDSEERPEDLQLVDHVDG
B18: Peptide D17 (peptide)
peptide: GGSLAFGTLLCIAIV
B19: Peptide D15 (peptide)
peptide: GGSLAFGTLLCIAIVLR
B20: Peptide E87 (peptide)
peptide: GSGQMKMFQEVSAADAFGPGTEGQ
B21: Peptide E89 (peptide)
peptide: TEGQVERFETVGMEAATDEGMPKS
B22: Peptide D40 (peptide)
peptide: IVLRFKKT
B23: Peptide D31 (peptide)
peptide: AFGTLLCIAIVLRFKKT
B24: Peptide D24 (peptide)
peptide: GGSLAFGT
B25: Peptide D25 (peptide)
peptide: GGSLAFG
notes: also called GGSLAFG
B26: Peptide E78 (peptide)
peptide: VPSVQVFSRSESTQPLLDSEERPE
B27: Peptide E88 (peptide)
peptide: VSAADAFGPGTEGQVERFETVGME
B28: Peptide E76 (peptide)
peptide: QNTSSTVQYSTVVHSGYRHQVPSV
B29: Peptide E86 (peptide)
peptide: QISDHISQSCGSGQMKMFQEVSAA
B30: Peptide D32 (peptide)
peptide: FGTLLCIAIVLRFKKT
B31: Peptide D20 (peptide)
peptide: GGSLAFGTLLCI
B32: Peptide D1 (peptide)
peptide: ATSLPVQDSSSVPLPTFLVAG
B33: Peptide E77 (peptide)
peptide: TVVHSGYRHQVPSVQVFSRSESTQ
B34: Peptide D41 (peptide)
peptide: VLRFKKT
notes: also called VLRFKKT
B35: Peptide E84 (peptide)
peptide: FERSKQVSSVNEEDFVRLKQQISD
B36: Peptide D42 (peptide)
peptide: LRFKKT
B37: Peptide D35 (peptide)
peptide: LLCIAIVLRFKKT
B38: Peptide D12 (peptide)
peptide: GGSLAFGTLLCIAIVLRFKK
B39: Peptide D19 (peptide)
peptide: GGSLAFGTLLCIA
B40: Peptide E83 (peptide)
peptide: QHESSPDISHFERSKQVSSVNEED
B41: Peptide D2 (peptide)
peptide: VQDSSSVPLPTFLVAGGSLAF
B42: Peptide D38 (peptide)
peptide: IAIVLRFKKT
B43: Peptide D28 (peptide)
peptide: GSLAFGTLLCIAIVLRFKKT
B44: Peptide D5 (peptide)
peptide: GGSLAFGTLLCIAIVLRFKKT
notes: also called D11; D27
B45: Peptide D57 (peptide)
peptide: GGSLAFATLLCIAIVLRFKKT
notes: alanine-scan variant of the domain IV 21-mer
B46: Peptide D53 (peptide)
peptide: GGSLAFGTLLAIAIVLRFKKT
notes: as for B45
B47: Peptide D52 (peptide)
peptide: GGSLAFGTLLCAAIVLRFKKT
notes: as for B45
B48: Peptide D48 (peptide)
peptide: GGSLAFGTLLCIAIVLAFKKT
notes: as for B45
B49: Peptide D47 (peptide)
peptide: GGSLAFGTLLCIAIVLRAKKT
notes: as for B45
B50: Peptide D46 (peptide)
peptide: GGSLAFGTLLCIAIVLRFAKT
notes: as for B45
B51: Peptide D56 (peptide)
peptide: GGSLAFGALLCIAIVLRFKKT
notes: as for B45
B52: Peptide D45 (peptide)
peptide: GGSLAFGTLLCIAIVLRFKAT
notes: as for B45
B53: Peptide D51 (peptide)
peptide: GGSLAFGTLLCIAAVLRFKKT
notes: as for B45
B54: Peptide D50 (peptide)
peptide: GGSLAFGTLLCIAIALRFKKT
notes: as for B45
B55: Peptide D55 (peptide)
peptide: GGSLAFGTALCIAIVLRFKKT
notes: as for B45
B56: Peptide D54 (peptide)
peptide: GGSLAFGTLACIAIVLRFKKT
notes: as for B45
B57: Peptide D49 (peptide)
peptide: GGSLAFGTLLCIAIVARFKKT
notes: as for B45
B58: Peptide D44 (peptide)
peptide: GGSLAFGTLLCIAIVLRFKKA
notes: as for B45
B59: Peptide E82 (peptide)
peptide: RQQYFKQNCSQHESSPDISHFERS
B60: Peptide D30 (peptide)
peptide: LAFGTLLCIAIVLRFKKT
B61: Peptide E81 (peptide)
peptide: HVDGGDGILPRQQYFKQNCSQHES
B62: Peptide D23 (peptide)
peptide: GGSLAFGTL
B63: Peptide D34 (peptide)
peptide: TLLCIAIVLRFKKT
B64: Peptide D3 (peptide)
peptide: SVPLPTFLVAGGSLAFGTLLC
B65: Peptide E80 (peptide)
peptide: ERPEDLQLVDHVDGGDGILPRQQY

What was measured:
[1] = biological target: T1, recombinant human IL-6 (human, UniProt P05231 30-212, labeled with radioactive iodine); test: radioiodinated IL-6 on peptide array; experiment D11-D57
T1 construct: Labeled probe in solution, added to wells that carry the synthetic peptides; also called IL-6 ligand; Interleukin-6
Method: (§1) Synthetic peptide arrays were constructed in 96-well microtiter plates in accordance with the method set forth in WO 91/02714 (Saxinger), and used to test the binding of recombinant human IL-6 that had been labeled with radioactive iodine (radiolabeling by standard methods). After incubating the radiolabeled IL-6 ligand in a well with each synthetic peptide, a washing step was performed to remove unbound label, and the relative level of radioactivity remaining in each well of the plate was evaluated to determine the relative affinity of each peptide for IL-6 ligand.

[2] = biological target: T1, recombinant human IL-6; test: radioiodinated IL-6 on peptide array; experiment D1-D10
Method: as §1

[3] = biological target: T1, recombinant human IL-6; test: radioiodinated IL-6 on peptide array

Counts/minute bound [1]	also measured	Binder
16100 counts/minute		B1
2460 counts/minute		B2
1180 counts/minute		B3
1050 counts/minute		B4
15700 counts/minute		B5
	Counts/minute bound [2]: 32000 counts/minute	B6
1110 counts/minute		B7
	Counts/minute bound [3]: 1110 counts/minute	B8
	Counts/minute bound [3]: 1230 counts/minute	B9
8350 counts/minute		B10
12400 counts/minute		B11
4880 counts/minute		B12
24700 counts/minute		B13
1000 counts/minute		B14
	Counts/minute bound [3]: 1380 counts/minute	B15
7690 counts/minute		B16
	Counts/minute bound [3]: 1380 counts/minute	B17
1340 counts/minute		B18
3950 counts/minute		B19
	Counts/minute bound [3]: 1000 counts/minute	B20
	Counts/minute bound [3]: 1130 counts/minute	B21
4450 counts/minute		B22

Counts/minute bound [1]	also measured	Binder
24000 counts/minute		B23
981 counts/minute		B24
952 counts/minute		B25
	Counts/minute bound [3]: 1230 counts/minute	B26
	Counts/minute bound [3]: 1090 counts/minute	B27
	Counts/minute bound [3]: 1200 counts/minute	B28
	Counts/minute bound [3]: 1240 counts/minute	B29
21800 counts/minute		B30
1200 counts/minute		B31
	Counts/minute bound [2]: 4000 counts/minute	B32
	Counts/minute bound [3]: 1250 counts/minute	B33
2550 counts/minute		B34
	Counts/minute bound [3]: 1020 counts/minute	B35
	Counts/minute bound (counts/minute) [1]: 1960	B36
15500 counts/minute		B37
18100 counts/minute		B38
1150 counts/minute		B39
	Counts/minute bound [3]: 1250 counts/minute	B40
	Counts/minute bound [2]: 4520 counts/minute	B41
6800 counts/minute		B42
26400 counts/minute		B43
	Counts/minute bound [2]: 159000 counts/minute	B44

Counts/minute bound [1]	also measured	Binder
22300 counts/minute		B45
34900 counts/minute		B46
27700 counts/minute		B47
29400 counts/minute		B48
20900 counts/minute		B49
30800 counts/minute		B50
23000 counts/minute		B51
28600 counts/minute		B52
28500 counts/minute		B53
17900 counts/minute		B54
22100 counts/minute		B55
22000 counts/minute		B56
22100 counts/minute		B57
21400 counts/minute		B58
	Counts/minute bound [3]: 1090 counts/minute	B59
22700 counts/minute		B60
	Counts/minute bound [3]: 1100 counts/minute	B61
997 counts/minute		B62
12400 counts/minute		B63
	Counts/minute bound [2]: 19800 counts/minute	B64
	Counts/minute bound [3]: 1210 counts/minute	B65
